# Results taken from paper PMC5897841 (2017).
# T1: Aurora A_(D274N) kinase domain (human, UniProt O14965 122-403, D274N)
# T1 sequence: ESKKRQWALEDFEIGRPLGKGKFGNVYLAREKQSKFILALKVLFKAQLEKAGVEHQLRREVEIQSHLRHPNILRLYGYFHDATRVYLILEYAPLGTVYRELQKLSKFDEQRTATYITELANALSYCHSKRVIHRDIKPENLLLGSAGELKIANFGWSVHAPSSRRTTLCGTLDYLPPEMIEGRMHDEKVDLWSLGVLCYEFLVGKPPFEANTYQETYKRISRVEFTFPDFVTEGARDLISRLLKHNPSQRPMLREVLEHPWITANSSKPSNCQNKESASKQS
# B1: CK2α kinase (enzyme)
# chain: SGPVPSRARVYTDVNTHRPREYWDYESHVVEWGNQDDYQLVRKLGRGKYSEVFEAINITNNEKVVVKILKPVKKKKIKREIKILENLRGGPNIITLADIVKDPVSRTPALVFEHVNNTDFKQLYQTLTDYDIRFYMYEILKALDYCHSMGIMHRDVKPHNVMIDHEHRKLRLIDWGLAEFYHPGQEYNVRVASRYFKGPELLVDYQMYDYSLDMWSLGCMLASMIFRKEPFFHGHDNYDQLVRIAKVLGTEDLYDYIDKYNIELDPRFNDILGRHSRKRWERFVHSENQHLVSPEALDFLDKLLRYDHQSRLTAREAMEHPYFYTVVK
# Legend:
# Assay in all cases: ITC
# [1] = target: B1
# [2] = target: T2, cRAD-TPX2_((7–43)) display protein (Pyrococcus furiosus | human, UniProt O74036 108-287; O74036 302-349, K144A)
# [3] = target: T2, cRAD-TPX2_((7–43)) display protein; remark: listed apart in the source
# [4] = target: T1, Aurora A_(D274N) kinase domain
# [5] = target: cRAD-CK2β_((186–200)) display protein (Pyrococcus furiosus | human, UniProt O74036 108-287; P67870 186-200; O74036 302-349, K144A)
binder,measurement,setting,value
RLYGFKIHPMAYQLQ [synthetic linear CK2β_((186–200)) peptide],Ka,[1],7.27e+06 M⁻¹
Aurora A wild-type kinase domain (untagged) (domain or fragment) FEIGRPLGKGKFGNVYLAREKQSKFILALKVLFKAQLEKAGVEHQLRREVEIQSHLRHPNILRLYGYFHDATRVYLILEYAPLGTVYRELQKLSKFDEQRTATYITELANALSYCHSKRVIHRDIKPENLLLGSAGELKIADFGWSVHAPSSRRTTLCGTLDYLPPEMIEGRMHDEKVDLWSLGVLCYEFLVGKPPFEANTYQETYKRISRVEFTFPDFVTEGARDLISRLLKHNPSQRPMLREVLEHPWI,Kd,[2],15.9 nM
same,Ka,[3],6.27e+07 M⁻¹
LSYSYDAPSDFINFSSLDDEGDTQNIDSWFEEKANLENLKGGGCQM [linear TPX2_((7–43)) peptide],Ka,[4],8.71e+06 M⁻¹
B1,Ka,[5],7.13e+06 M⁻¹
